3 molecules from patent US20140056903A1 (Regeneron, published 2014) can be followed below.

In assay [1] the target is T1, human GFRα3 expressed with a C-terminal myc-myc-hexahistidine tag (human, UniProt O60609 32-374, biotinylated (sites not given) in ELISA format 2 and in the Octet cross-competition; not in SPR).
T1 construct: also called hGFRα3-mmh; hGFRα3-mmH
Put plainly: Octet cross-competition; biotin-hGFRα3-mmH pre-saturated with first antibody H4H2350P. Here is the method:
(§1) A cross-competition assay was conducted to assess the ability of select antibodies to compete with one another for binding to human GFRα3 using an Octet RED384 biosensor (Fortebio Inc.). The entire experiment was performed at 25° C. with the flow rate of 1000 rpm in Octet HBST buffer (0.01 M HEPES pH7.4, 0.15M NaCl, 3 mM EDTA, 0.05% v/v Surfactant P20, 0.1 mg/mL BSA). To assess whether 2 antibodies were able to compete with one another for binding to their respective epitopes on biotinylated recombinant human GFRα3 expressed with a C-terminal myc-myc-hexahistidine tag (biotin-hGFRα3-mmH; SEQ ID:370), around ˜1.2 nm of biotin-hGFRα3-mmH was first captured onto streptavidin-coated Octet sensor tips (Fortebio Inc, #18-5019) by submerging the tips for 1 minute into a 10 μg/mL solution of biotin-hGFRα3-mmH. The antigen coated sensor tips were then placed into wells containing 25 μg/mL solution of a first anti-GFRα3 monoclonal antibody for 4 minutes to saturate the biotin-hGFRα3-mmH surface. The sensor tips were then subsequently dipped into wells containing 25 μ/mL solution of a second anti-GFRα3 monoclonal antibody. The sensor tips were washed in Octet HBST buffer in between every step of the experiment. The real-time binding response was monitored during the course of the experiment and the binding response at the end of every step was recorded as shown in FIG. 9. The response of mAb-2 binding to biotin-hGFRα3-mmH pre-complexed with the first antibody was compared and competitive/non-competitive behavior of different anti-GFRα3 monoclonal antibodies was determined.
A general note: BLI is a label-free optical method that tracks binding on a fibre tip over time.

Assay [2] addresses T1, human GFRα3 expressed with a C-terminal …. Put plainly: Octet cross-competition; biotin-hGFRα3-mmH pre-saturated with first antibody H4H2357S. Here is the method: as §1
Assay [3] shares this target. Put plainly: Octet cross-competition; biotin-hGFRα3-mmH pre-saturated with first antibody H4H2212N. As for the experimental part:
as §1

Assay [4] has the same target. Description: Octet cross-competition; biotin-hGFRα3-mmH pre-saturated with first antibody H4H2292S. As for the experimental part: as §1
The target is the same in assay [5]. Put plainly: Octet cross-competition; biotin-hGFRα3-mmH pre-saturated with first antibody H4H2355S. Here is the method:
as §1

For assay [6] the target is unchanged. Put plainly: Octet cross-competition; biotin-hGFRα3-mmH pre-saturated with first antibody H4H2295S. Here is the method:
as §1

For assay [7] the target is unchanged. Description: Octet cross-competition; biotin-hGFRα3-mmH pre-saturated with first antibody H4H2291S. As for the experimental part:
as §1

The target is the same in assay [8]. Description: Octet cross-competition; biotin-hGFRα3-mmH pre-saturated with first antibody H4H2243N2. Here is the method:
as §1

Assay [9] has the same target. Put plainly: SPR, Ab captured, 25C. Put shortly: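 Captured antibodies on a CM5 sensor were exposed to GFRα3 in HBS-EP or PBS/0.05% P20. The mmh-tagged proteins ran at 200–7.4 nM and the hFc-tagged protein at 100–3.7 nM. Rate constants were obtained by a 1:1 fit.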

T1 sequence (O60609 other isoform, or with tags, fused parts or gaps limits assumed): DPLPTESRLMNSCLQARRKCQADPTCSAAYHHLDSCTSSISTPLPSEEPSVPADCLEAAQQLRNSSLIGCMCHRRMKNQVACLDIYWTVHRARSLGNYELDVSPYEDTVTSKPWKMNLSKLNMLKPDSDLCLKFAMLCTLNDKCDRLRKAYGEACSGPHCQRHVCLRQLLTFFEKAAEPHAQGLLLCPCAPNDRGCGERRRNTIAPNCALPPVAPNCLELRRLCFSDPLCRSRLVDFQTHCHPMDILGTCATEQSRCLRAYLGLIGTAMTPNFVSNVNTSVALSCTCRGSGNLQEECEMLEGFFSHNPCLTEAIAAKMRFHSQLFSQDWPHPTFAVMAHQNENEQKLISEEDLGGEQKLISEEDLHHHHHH

B1: H4H2350P (antibody, human IgG4, V domains shown)
VH: QVQLQESGPGLVKPSETLSLTCTVSGGSISTYYWSWFRQPPGKGLEWIGYIYYSGSTNHNPSLKSRVTISVDTSKNQFSLKLRSVTAADTAVYYCARVGPVGWGSWGNFDYWGQGTLVTVSS
VL: DIQLTQSPSFLSASVGDRVTITCWASQGISSYLAWSQQKPGKAPKLLIYAASTLQSGVPSRFSGSGSGTEFTLTISSLQPEDFATYYCQQLNSYPWTFGQGTKVEIK
notes: human IgG4 Fc (H4H)
In the case of B1, the “binding response of second antibody (nm)” value in assay [1] was 0.25 nm; in assay [2], 1.35 nm; in [3] it was 1.36 nm; in [4] it was 1.53 nm; in assay [5], 1.44 nm; in assay [6], 1.35 nm. Further, the “binding response of second antibody (nm)” value was 1.44 nm in assay [7] and 1.2 nm in assay [8]. The same molecule showed a Kd in assay [9] of 2.01 nM. The koff in assay [9] was determined as 0.000207 s⁻¹. The kon in [9] turned out to be 103000 M⁻¹ s⁻¹. Also, in assay [9], the t1/2 was 56 min.

B2: H4H2243N2 (antibody, human IgG4, V domains shown)
VH: QVQLVQSGAEVKKPGASVKVSCKASGYTFTSYGIIWVRQAPGQGLEWMGWISGYNGNTNYAQNLQGRVTMTTDTSTTTAYMELRSLRSDDTAVYYCARWGIATRPYYYYGMDVWGQGTTVTVSS
VL: DIQMTQSPSSLSASVGDRVTITCRASQDITNYLAWFQQKPGKAPKSLIYAASSLQSGVPSKFSGSGSGTDFTLTISSLQPEDFATYYCQQYNSYPPTFGPGTKVDIK
notes: human IgG4 Fc (H4H)
Turning to B2, the “binding response of second antibody (nm)” value is 1.72 nm in assay [1]; 0.01 nm in [2]; 0.16 nm in assay [3]; 1.91 nm in assay [4]; 0.09 nm in assay [5]; 0.01 nm in assay [6]. Moreover, the “binding response of second antibody (nm)” value was 0 nm in [7] and 0.06 nm in assay [8]. The same molecule showed a Kd in assay [9] of 2.92 nM. Moreover, the koff in assay [9] amounted to 0.00078 s⁻¹. The kon in assay [9] was 267000 M⁻¹ s⁻¹. The same molecule registered a t1/2 in assay [9] of 15 min.

B3: H4H2352S (antibody, human IgG4, V domains shown)
VH: EVQLVQSGAEVKKPGASVKVSCKASGYTFTNYGITWVRQAPGQGLEWMGWISAYNGNTGYAQKFQGRVTMTTDTSTSTAYMELRSLRSDDTAVYYCAREDYDFWRAFDIWGQGTMVTVSS
VL: EIVLTQSPGTLSLSPGERATLSCRASQSVSSTYLAWLQQKPGQAPRLLIYGASSRATGIPDRFSGSGSGTDFTLTINRLEPEDFAVYYCQQYAYSPYTFGQGTKLEIK
notes: human IgG4 Fc (H4H); also called H4H2352S-1
For the molecule B3, the “binding response of second antibody (nm)” value is 2.06 nm in [1]; 2 nm in assay [2]; 0.08 nm in [3]; 0.34 nm in assay [4]; 1.97 nm in assay [5]; 1.85 nm in assay [6]. In addition, the “binding response of second antibody (nm)” value in assay [7] came out at 2.03 nm; in [8], 0.46 nm. For the same molecule, binding in assay [9] was put at a Kd of 0.082 nM. The molecule further registered a koff in assay [9] of 5.81e-05 s⁻¹. This molecule registered a kon in assay [9] of 709000 M⁻¹ s⁻¹. The same molecule yielded a t1/2 in assay [9] of 199 min.

Broadly, the Kd is the constant that tells how readily two partners part at equilibrium. As usually defined, the koff is a measure of how fast the partners let go of each other. One may read the kon as the second-order rate constant of association. The low end stands for slower complex formation, the high end for faster complex formation.
